Results as given in patent publication US20250326825A1, “ANTI-FABP4 ANTIBODIES AND THEIR USES” (THE HONG KONG POLYTECHNIC UNIVERSITY, priority 2024, published 2025).
Values belong to the molecule of their own block, whether it stands above or below them.

Columns and labels:
[1] = system: hepatocellular carcinoma cells; test: Sphere formation / limiting dilution sphere analysis (self-renewal); type: cell-based, human
Procedure: Sphere formation assay—Three to five hundred cells of PLC/PRF/5, Huh7 and hepatocellular carcinoma organoids (HK-HCC P1 and HCC #23) were seeded to 24-well plates coated with poly (2-hydroxyethyl methacrylate) (polyHEMA, Sigma Aldrich). Cells were grown in 500 μl of either conditioned media or serum-free 0.25% methylcellulose (Sigma-Aldrich) DMEM/F12 medium supplemented with 4 μg/mL insulin (Sigma-Aldrich), B27 (Invitrogen) and recombinant human FABP4 (rhFABP4, Biovision) at a concentration of either 20 ng/ml or 100 ng/ml. The number of tumourspheres (diameter larger than 100 μm) was counted under microscope after 8 to 12 days.
Limiting dilution assay—Parental or shITGB1 PLC/PRF/5 and Huh7 cells were cultured in a 96-well plate coated with polyHEMA with 200 μl serum-free 0.25% methylcellulose DMEM/F12 medium supplemented with 4 μg/mL insulin, B27 and rhFABP4 when appropriate. Sphere formation was scored after 8 to 12 days under a phase contrast microscope. The frequency of sphere-forming cell was calculated accordingly using an extreme limiting dilution algorithm (ELDA).

[2] = system: hepatocellular carcinoma cells; test: Cancer stem cell functional assays (overall); type: cell-based, human; conditions: hepatocellular carcinoma cells in ADCM (FIG. 9A to 9D)
Procedure: In summary, the methods shown herein were used to evaluate the interaction between differentiated adipocytes and HCC cells using a co-culture system. The conditioned medium of the adipocytes was profiled using Orbitrap liquid chromatography mass spectrometry. The functional role of FABP4 in the regulation of liver cancer stem cells was evaluated by various cancer stem cells functional assays. In vivo functional characterization of FABP4 was performed in Fabp4 knockout mice. Molecular pathways mediating phenotypic alterations were identified using mass spectrometry, RNA sequencing analysis, and pathway analysis. The therapeutic efficacy of monoclonal neutralising antibody against FABP4 was evaluated in two mouse models, a hepatocellular carcinoma (HCC) xenograft model and a MASLD-HCC model.

[3] = limits clinical use; cited from earlier work
[4] = system: PLC/PRF/5 cells; test: In vivo tumorigenicity assay (limiting dilution), subcutaneous engraftment of pretreated PLC/PRF/5 cells; set-up: species or system mouse (mouse (mouse (human cell xenograft) cell xenograft) cell xenograft); conditions: PLC/PRF/5 pretreated with rhFABP4 at 100 ng/ml, NOD/SCID mice
Procedure: (§1) In vivo tumorigenicity assay—In vivo evaluation of tumorigenicity was performed with either male non-obese diabetic/severe combined immunodeficient (NOD/SCID) or NOD/SCID gamma mice, 4 to 6 weeks of age, by induction of tumour xenografts. Cells were suspended in 1:1 culture medium and BD Matrigel Matrix (BD Biosciences) and subcutaneously injected into the flanks of the mice, which were kept under observation. Briefly, each mouse received two injections of cells in both flanks. The cells were pretreated with either rhFABP4 (100 ng/ml) or ADCM for 24 hours, and, with their control group, were injected into NOD/SCID and NOD/SCID gamma mice, respectively. Tumours were harvested at the end of the experiment for documentation. Tumour-initiating cell frequency was calculated using Extreme Limiting Dilution Analysis (ELDA) software. No specific randomization method was used. Sample size of animals was chosen based on p-values. […] Mice were sacrificed if the percentage of body weight loss is greater than 20% including the tumour mass.

[5] = system: Huh7 cells; test: In vivo tumorigenicity assay (limiting dilution), subcutaneous engraftment of pretreated Huh7 cells; set-up: species or system mouse xenograft; conditions: Huh7 pretreated with rhFABP4 at 100 ng/ml, NOD/SCID mice
Procedure: as §1

[6] = system: hepatocellular carcinoma cells; test: Migration and invasion transwell assays; type: cell-based, human; conditions: rhFABP4 (FIG. 2G)
Procedure: Migration and invasion assays—Migration assays were performed using polycarbonate membrane transwell inserts with pore size of 8 μm (Millipore). Invasion assays were performed using self-coated Matrigel (BD Biosciences) transwell inserts. Hepatocellular carcinoma cell lines (PLC/PRF/5 and Huh7) or patient-derived organoids (HK-HCC P1 and HCC #23) in serum-free medium were seeded in upper chamber, while the lower chamber was supplemented with either ADCM or 100 ng/mL rhFABP4 in serum-free medium as a chemoattractant. Serum-free DMEM was used as a negative control. Cells were incubated in humidified incubation at 37° C. for 48 hours. The transwell membranes were fixed with methanol and stained with 1% crystal violet. The membranes were cleaned and air-dried. Photographs of five randomly selected fields of the fixed cells were captured and the cells were counted using ImageJ.

[7] = system: hepatocellular carcinoma cells; test: Annexin-V apoptosis assay (drug resistance to doxorubicin or sorafenib); type: cell-based, human; conditions: rhFABP4 pretreatment (FIG. 2H)
Procedure: Annexin-V apoptosis assay—Cells were stained by FITC-conjugated Annexin-V (BioVision) and propidium iodide (PI) (Invitrogen) in Annexin-V binding buffer (BD Biosciences) at room temperature for 30 minutes. Apoptosis percentage was determined using BD Accuri C6 flow cytometer and FACSDiva software (BD Biosciences).

[8] = system: hepatocellular carcinoma cells; test: Flow cytometric analysis of liver CSC markers; type: cell-based, human; conditions: rhFABP4 20 ng/ml and 100 ng/ml (FIG. 2F)
Procedure: Flow cytometric analysis—Cells were stained by Phycoerythrin (PE)-conjugated CD47 and CD90 antibodies (#536046 & #555596, BD Biosciences) in PBS with 2% FBS at 4° C. for 30 to 60 minutes. Isotype-matched mouse immunoglobulins served as controls. Samples were analysed using BD Accuri C6 flow cytometer and FACSDiva software (BD Biosciences).

[9] = system: PI3K/AKT/β-catenin signalling; test: Western blot of AKT/GSK3β/β-catenin signalling in hepatocellular carcinoma cells; type: cell-based, human; conditions: ADCM or rhFABP4 treatment (FIG. 5D)
Source text: Western blot analysis—Whole cell lysates were extracted using either NETN buffer supplemented with protease inhibitor cocktail or direct lysis. Protein lysate was separated by SDS-polyacrylamide gel electrophoresis (SDS-PAGE) and transferred to polyvinylidene difluoride membrane (Millipore) for western blot analyses. Primary antibodies FABP4[EPR3579](1:1000, ab92501, Abcam), pAKT(Ser473) (D9E), pGSK3β(Ser9) (D3A4), AKT and β-catenin (D10A8) (1:1000, #4060S, #9322S, #9272S & #8480S, Cell Signaling Technology), GSK3β(clone 7) (1:1000, #610202, clone 7, BD Transduction Laboratories), DDK (OTI4C5) (1:1000,TA50011-100, Origene), ITGB1 (1:1000, 12594-1-AP, Proteintech) and β-ACTIN (AC-74) (1:5000, #A5316, Sigma Aldrich) were incubated at 4° C. overnight. After washing, the membrane was incubated with horseradish peroxidase-conjugated anti-mouse or rabbit antibody (GE HealthCare). The signals were visualized using the enhanced chemiluminescence method. Blot images were quantified by densitometry using ImageJ software. The protein expression was normalized to β-actin and expressed as fold change relative to respective controls.

[10] = system: β-catenin; test: Beta-catenin TCF binding luciferase (TOP/FOP) reporter assay; type: cell-based, human; conditions: ADCM or rhFABP4 for 24 hours (FIG. 5E)
Source text: Beta-catenin TCF binding luciferase reporter assay—β-catenin activity was examined using luciferase reporter assay of TCF/LEF-dependent transcription (TOP/FOPFLASH reporter assay). Either firefly luciferase pSuper8XTOPflash or pSuper8XFOPflash constructs (gifts from Dr. Moon R, University of Washington, USA), together with Renilla luciferase construct pRL-CMV (Promega, Madison, WI, USA) for normalization of transfection efficiency, were transfected using Lipofectamine 2000. Luciferase activities were assayed using Dual-Luciferase Reporter Assay System (Promega) according to manufacturer's protocol.

[11] = system: hepatocellular carcinoma patient-derived organoids (HK-HCC P1 and HCC #23); test: Hepatocellular carcinoma patient-derived organoid assays; type: cell-based, human
Source text: Hepatocellular carcinoma patient-derived organoids and culture conditions—Hepatocellular carcinoma tissue was obtained from patients undergoing hepatectomy at Queen Mary Hospital, Hong Kong. Samples were collected from patients who had not received any previous local or systemic treatment prior to operation. For organoid cultures, cells were isolated and cultured according to protocol. Hepatocellular carcinoma patient-derived organoids labelled HCC #23 was gift from Dr. Meritxell Huch of The Gudon Institute at the University of Cambridge.
Cell viability assay—Cell viability of organoid cultures treated with specified concentrations of rhFABP4 for 6 days was evaluated using CellTiter-Glo® Luminescent Cell Viability Assay (Promega) according to manufacturer's protocol.
Sphere formation assay—Three to five hundred cells of PLC/PRF/5, Huh7 and hepatocellular carcinoma organoids (HK-HCC P1 and HCC #23) were seeded to 24-well plates coated with poly (2-hydroxyethyl methacrylate) (polyHEMA, Sigma Aldrich). […] The number of tumourspheres (diameter larger than 100 μm) was counted under microscope after 8 to 12 days.
Migration and invasion assays—Migration assays were performed using polycarbonate membrane transwell inserts with pore size of 8 μm (Millipore). […] Photographs of five randomly selected fields of the fixed cells were captured and the cells were counted using ImageJ.

[12] = molecular target: T1, ITGB1 (Homo sapiens, UniProt P05556); test: Mass spectrometry / coimmunoprecipitation of FABP4 binding partner; conditions: biotin-labelled rhFABP4, Huh7 membrane surface
T1 construct: endogenous in cells; host or cells: Huh7
T1 sequence (P05556 21-798): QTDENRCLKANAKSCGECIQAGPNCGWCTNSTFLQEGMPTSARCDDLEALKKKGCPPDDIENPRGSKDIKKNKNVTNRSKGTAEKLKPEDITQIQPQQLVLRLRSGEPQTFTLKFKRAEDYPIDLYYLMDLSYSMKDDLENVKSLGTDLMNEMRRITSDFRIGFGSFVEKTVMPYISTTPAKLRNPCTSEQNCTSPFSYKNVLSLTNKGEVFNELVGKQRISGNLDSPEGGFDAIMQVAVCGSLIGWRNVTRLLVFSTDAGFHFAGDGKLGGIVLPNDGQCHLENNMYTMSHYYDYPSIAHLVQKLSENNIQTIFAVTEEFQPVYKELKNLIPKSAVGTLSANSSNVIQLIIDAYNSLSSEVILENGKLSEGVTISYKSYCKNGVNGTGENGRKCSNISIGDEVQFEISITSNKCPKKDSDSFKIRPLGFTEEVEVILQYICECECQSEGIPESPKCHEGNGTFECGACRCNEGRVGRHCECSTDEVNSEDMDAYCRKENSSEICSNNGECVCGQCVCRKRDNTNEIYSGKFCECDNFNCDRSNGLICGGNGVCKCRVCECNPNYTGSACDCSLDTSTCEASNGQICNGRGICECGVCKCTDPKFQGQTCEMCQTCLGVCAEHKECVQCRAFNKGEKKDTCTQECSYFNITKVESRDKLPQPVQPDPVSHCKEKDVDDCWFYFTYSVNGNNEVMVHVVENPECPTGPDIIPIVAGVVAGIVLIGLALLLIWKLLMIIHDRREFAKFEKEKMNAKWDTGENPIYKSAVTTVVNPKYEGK
Procedure: Biotinylation of rhFABP4 and Streptavidin capturing of membrane protein—rhFABP4 was biotin-labelled and crosslinked with sulfosuccinimidyl-2-[6-(biotinamido)-2-(p-azidobenzamido) hyxanoamido]ethyl-1,3′-ithiopropionate) (Sulfo-SBED, A39260, Thermo Fisher Scientific) according to manufacturer's instructions. In brief, 50 μg of rhFABP4 (#4504, BioVision) was incubated with 1 mg of dissolved Sulfo-SBED at room temperature for 30 minutes. The reaction mixture was desalted using Amicon® Ultra-0.5 centrifugal filter device with a 3,000 Molecular Weight Cut Off (Millipore, Germany). The desalted biotinylated rhFABP4 was incubated in PBS with adherent Huh7 cells at room temperature for 10 minutes. The cell surface proteins interacting with biotinylated rhFAPB4 was captured by the photoreactive aryl azide moiety using long wave-UV at 360 nm. The labelled proteins were isolated by NeutrAvidin Agarose slurry and reduced using Pierce™ Cell Surface Protein Biotinylation and Isolation Kit (#A44390, Thermo Fisher Scientific). The interacting rhFABP4-surface protein complex was isolated, and the disulfide bond reduced, resulting in the biotin label being transferred to the interacting proteins. […]

Molecule: CCc1c(-c2ccccc2)c(-c2ccccc2)nn1-c1ccccc1-c1cccc(OCC(=O)O)c1 [BMS-309403]
Enhancing self-renewal ability of ADCM (tumoursphere formation) ([1]; PLC/PRF/5, ADCM, inhibitor at 1 μM): suppressed | Effects of ADCM on liver cancer stem cell properties [2]: attenuation | Side effects [3]: acute cardiac depressant effect

Transactivation of β-catenin (TOP/FOP reporter) [10]: enhanced | Interaction with membrane receptor ITGB1 [12]: directly interacts
B1: rhFABP4: recombinant human FABP4 protein (Biovision) (protein, UniProt P15090 2-132, looked up)
Fatty acid-binding protein, …: CDAFVGTWKLVSSENFDDYMKEVGVGFATRKVAGMAKPNMIISVNGDVITIKSESTFKNTEISFILGQEFDEVTADDRKVKSTITLDGGVLVHVQKWDGKSTTIKRKREDDKLVVECVMKGVTSTRVYERA
Estimated CSC frequency ([4]; extreme limiting dilution): 1/2108 | Tumor incidence rate, 1 × 10^3 cells ([4]; subcutaneous, 1 × 10^3 cells): 3/5 | Tumor incidence rate, 5 × 10^3 cells ([4]; subcutaneous, 5 × 10^3 cells): 4/5 | Estimated CSC frequency ([5]; extreme limiting dilution): 1/3404 | Tumor incidence rate, 1 × 10^3 cells ([5]; subcutaneous, 1 × 10^3 cells): 3/5 | Tumor incidence rate, 1 × 10^4 cells ([5]; subcutaneous, 1 × 10^4 cells): 4/5 | Tumor incidence rate, 5 × 10^3 cells ([5]; subcutaneous, 5 × 10^3 cells): 4/5 | Self-renewal (sphere formation) ([1]; rhFABP4 20 ng/ml and 100 ng/ml (FIG. 2D)): promote | Cell migration and invasion [6]: promote | Resistance to doxorubicin and sorafenib treatment [7]: promote | Expression of liver CSC markers [8]: promote | AKT phosphorylation at Ser473 [9]: activated | GSK3β phosphorylation at Ser9 [9]: inactivation | Total β-catenin [9]: accumulation | Self-renewal of patient-derived organoids ([11]; rhFABP4 (FIG. 4B)): confer self-renewal | Size of organoids and their proliferative rate ([11]; rhFABP4, 6 days, CellTiter-Glo (FIG. 4C)): increase
